± gives the standard deviation of the averaged measurements.
Assay: total protein half-life in vivo (active degradation + dilution); higher = more stable protein
[1] = E. coli NCM3722 delta-clpP delta-lon delta-hslV, growth: N-lim chemostat, doubling time 6 h
[2] = E. coli NCM3722 delta-clpP, growth: N-lim chemostat, doubling time 6 h
[3] = E. coli NCM3722 delta-hslV, growth: N-lim chemostat, doubling time 6 h
[4] = E. coli NCM3722 delta-lon, growth: N-lim chemostat, doubling time 6 h
[5] = E. coli NCM3722 delta-smpB, growth: N-lim chemostat, doubling time 6 h
[6] = wild type E. coli NCM3722, growth: C-lim chemostat, doubling time 3 h
[7] = wild type E. coli NCM3722, growth: C-lim chemostat, doubling time 6 h
[8] = wild type E. coli NCM3722, growth: C-lim chemostat, doubling time 12 h
[9] = wild type E. coli NCM3722, growth: N-lim chemostat, doubling time 6 h
[10] = wild type E. coli NCM3722, growth: N-lim chemostat, doubling time 12 h
[11] = wild type E. coli NCM3722, growth: P-lim chemostat, doubling time 6 h
[12] = wild type E. coli NCM3722, growth: P-lim chemostat, doubling time 12 h

Sequence	total protein half-life in vivo [1]	total protein half-life in vivo [2]	total protein half-life in vivo [3]	total protein half-life in vivo [4]	total protein half-life in vivo [5]	total protein half-life in vivo [6]	total protein half-life in vivo [7]	total protein half-life in vivo [8]	total protein half-life in vivo [9]	total protein half-life in vivo [10]	total protein half-life in vivo [11]	total protein half-life in vivo [12]
MSLSRTQIVNWLTRCGDIFSTESEYLTGLDREIGDADHGLNMNRGFSKVVEKLPAIADKDIGFILKNTGMTLLSSVGGASGPLFGTFFIRAAQATQARQSLTLEELYQMFRDGADGVISRGKAEPGDKTMCDVWVPVVESLRQSSEQNLSVPVALEAASSIAESAAQSTITMQARKGRASYLGERSIGHQDPGATSVMFMMQMLALAAKE	4.62 ± 0.54 h	4.25 ± 0.72 h	4.36 ± 0.067 h	4.75 ± 0.52 h	4.23 ± 0.14 h	2.93 ± 0.12 h	5.43 ± 0.13 h	9.74 ± 0.25 h	4.432 ± 0.04 h	7.23 ± 0.11 h	4.75 ± 1.6 h	11.8 ± 0.41 h
MKQATRKPTTPGDILLYEYLEPLDLKINELAELLHVHRNSVSALINNNRKLTTEMAFRLAKVFDTTVDFWLNLQAAVDLWEVENNMRTQEELGRIETVAEYLARREERAKKVA [P0A9T6]	5.02 ± 0.066 h	3.95 ± 0.23 h	0.853 h	0.94 h	0.895 ± 0.037 h	0.871 ± 0.018 h	0.977 ± 0.032 h	1.53 h	1.08 h	1.08 h	0.994 ± 0.08 h	1.7 ± 0.7 h
MDLSLLKALSEADAIASSEQEVRQILLEEADRLQKEVRFDGLGSVLIRLNESTGPKVMICAHMDEVGFMVRSISREGAIDVLPVGNVRMAARQLQPVRITTREECKIPGLLDGDRQGNDVSAMRVDIGARSYDEVMQAGIRPGDRVTFDTTFQVLPHQRVMGKAFDDRLGCYLLVTLLRELHDAELPAEVWLVASSSEEVGLRGGQTATRAVSPDVAIVLDTACWAKNFDYGAANHRQIGNGPMLVLSDKSLIAPPKLTAWVETVAAEIGVPLQADMFSNGGTDGGAVHLTGTGVPTVVMGPATRHGHCAASIADCRDILQMQQLLSALIQRLTRETVVQLTDFR	5.79 h	–	–	–	–	2.18 h	–	–	–	–	–	–
MKFTQRLSLRVRLTLIFLILASVTWLLSSFVAWKQTTDNVDELFDTQLMLFAKRLSTLDLNEINAADRMAQTPNRLKHGHVDDDALTFAIFTHDGRMVLNDGDNGEDIPYSYQREGFADGQLVGEDDPWRFVWMTSPDGKYRIVVGQEWEYREDMALAIVAGQLIPWLVALPIMLIIMMVLLGRELAPLNKLALALRMRDPDSEKPLNATGVPSEVRPLVESLNQLFARTHAMMVRERRFTSDAAHELRSPLTALKVQTEVAQLSDDDPQARKKALLQLHSGIDRATRLVDQLLTLSRLDSLDNLQDVAEIPLEDLLQSSVMDIYHTAQQAKIDVRLTLNAHSIKRTGQPLLLSLLVRNLLDNAVRYSPQGSVVDVTLNADNFIVRDNGPGVTPEALARIGERFYRPPGQTATGSGLGLSIVQRIAKLHGMNVEFGNAEQGGFEAKVSW	5.9 ± 0.21 h	6.26 ± 0.56 h	6.38 ± 0.11 h	–	5.66 ± 0.13 h	3.19 h	–	14.6 ± 1.6 h	5.98 ± 0.52 h	14.08 ± 0.14 h	6.13 ± 0.39 h	12.4 ± 3.3 h
MDQVVIFKQIFDKVRNDLNYQWFYSELKRHNVSHYIYYLATENVHIVLKNDNTVLLKGLKNIVSVKFSKDRHLIETTSNKLKSREITFQEYRRNLAKAGVFRWVTNIHEQKRYYYTFDNSLLFTESIQKTTQILPR	–	–	–	–	–	–	4.33 h	–	–	–	–	5.25 h
MGSNIHGISCTANNYLKQAWNDIKNEYEKNQTYSITLFENTLVCFMRLYNELRRKVNEEDTPCLECESLEKEFEEMQNDNDLSLFMRILRTNDTQIYSGVSGGITYTIQYVRDIDIVRVSLPGRASESITDFKGYYWYNFMEYIENINACDDVFSEYCFDDENISVQPERINTPGISDLDSDIDLSGISFIQRETNQALGLKYAPVDGDGYCLLRAILVLKQHDYSWALVSYKMQKEVYNEFIKMVDKKTIEALVDTAFYNLREDVKTLFGVDLQSDNQIQGQSSLMSWSFLFFKKQFIDSCLNNEKCILHLPEFIFNDNKNLLALDTDTSDRIKAVKNFLVVLSDSICSLFIVNSNVASISLGNESFSTDEDLEYGYLMNTGNHYDVYLPPELFAQAYKLNNKEMNAQLDYLNRYAI	–	–	–	5.18 h	–	–	–	–	–	–	–	–
MKQSHFFAHLSRLKLINRWPLMRNVRTENVSEHSLQVAMVAHALAAIKNRKFGGNVNAERIALLAMYHDASEVLTGDLPTPVKYFNSQIAQEYKAIEKIAQQKLVDMVPEELRDIFAPLIDEHAYSDEEKSLVKQADALCAYLKCLEELAAGNNEFLLAKTRLEATLEARRSQEMDYFMEIFVPSFHLSLDEISQDSPL	4.544 ± 0.041 h	4.34 ± 0.065 h	4.17 ± 0.19 h	5.57 ± 1.7 h	4.07 ± 0.4 h	2.94 ± 0.21 h	5.64 ± 0.19 h	–	4.16 ± 0.45 h	7.12 ± 0.38 h	4.86 ± 0.56 h	9.76 ± 0.83 h
MAKVSLEKDKIKFLLVEGVHQKALESLRAAGYTNIEFHKGALDDEQLKESIRDAHFIGLRSRTHLTEDVINAAEKLVAIGCFCIGTNQVDLDAAAKRGIPVFNAPFSNTRSVAELVIGELLLLLRGVPEANAKAHRGVWNKLAAGSFEARGKKLGIIGYGHIGTQLGILAESLGMYVYFYDIENKLPLGNATQVQHLSDLLNMSDVVSLHVPENPSTKNMMGAKEISLMKPGSLLINASRGTVVDIPALCDALASKHLAGAAIDVFPTEPATNSDPFTSPLCEFDNVLLTPHIGGSTQEAQENIGLEVAGKLIKYSDNGSTLSAVNFPEVSLPLHGGRRLMHIHENRPGVLTALNKIFAEQGVNIAAQYLQTSAQMGYVVIDIEADEDVAEKALQAMKAIPGTIRARLLY [P0A9T0]	5.06 ± 0.26 h	4.512 ± 0.0057 h	3.75 ± 0.028 h	4.11 ± 0.16 h	4.09 ± 0.058 h	3.09 ± 0.13 h	5.65 ± 0.34 h	11.5 ± 1.3 h	3.94 ± 0.12 h	5.84 ± 0.19 h	6.02 ± 0.23 h	11.8 ± 0.39 h
MRVENNNVSGQNHDPEQIDLIDLLVQLWRGKMTIIISVIVAIALAIGYLAVAKEKWTSTAIITQPDVGQIAGYNNAMNVIYGQAAPKVSDLQETLIGRFSSAFSALAETLDNQEEREKLTIEPSVKNQQLPLTVSYVGQTAEGAQMKLAQYIQQVDDKVNQELEKDLKDNIALGRKNLQDSLRTQEVVAQEQKDLRIRQIQEALQYANQAQVTKPQIQQTGEDITQDTLFLLGSEALESMIKHEATRPLVFSPNYYQTRQNLLDIESLKVDDLDIHAYRYVMKPMLPIRRDSPKKAITLILAVLLGGMVGAGIVLGRNALRNYNAK	6.28 ± 0.95 h	6.967 ± 0.025 h	6.99 ± 0.87 h	6.083 ± 0.046 h	6.13 ± 0.13 h	3.05 ± 0.051 h	5.61 ± 0.062 h	11.1 ± 1.2 h	6.07 ± 0.17 h	12 ± 1.5 h	5.97 ± 0.15 h	12.1 ± 0.5 h

From the supplement of paper PMC11246515
